# Measured values as given in paper doi:10.1101/2020.03.20.000893 (bioRxiv, 2020).
# B1: K2P2.1_(cryst), engineered mouse K2P2.1 (TREK-1) (domain or fragment, UniProt P97438-2 21-322, looked up)
# chain: SFSSKPTVLASRVESDSAINVMKWKTVSTIFLVVVLYLIIGATVFKALEQPQEISQRTTIVIQREKFLRAHPCVSDQELDELIQQIVAAINAGIIPLGASSNQVSHWDLGSSFFFAGTVITTIGFGNISPRTEGGKIFCIIYALLGIPLFGFLLAGVGDQLGTIFGKGIAKVEDTFIKWNVSQTKIRIISTIIFILFGCVLFVALPAVIFKHIEGWSALDAIYFVVITLTTIGFGDYVAGGSDIEYLDFYKPVVWFWILVGLAYFAAVLSMIGDWLRVIAKKTKEAVGEFRAHAAEWTANVT
# Biological target: the molecule itself
# Assay: crystal structure
protein,measurement,value
B1,binding result,binds
